Legend:
TrkB (TrkB-VN) = assay: BiFC assay in HeLa cells (TrkB-VN with MDGA2-VC or ΔMAM-VC); assay type: cell-based, human; details: 24 h, Venus fluorescence
Procedure: (§1) Fig 3 MDGA2 interacts with TrkB and suppresses TrkB activity. (A) Primary hippocampal neurons derived from Mdga2^ +/− (Het) mice and their wild-type (WT) littermates at DIV 7 were treated with different doses of BDNF for 30 min. Equal amounts of protein lysates were subjected to immunoprecipitation (IP) with an anti-TrkB antibody, followed by immunoblotting with an anti-phosphotyrosine (pTyr) antibody or the anti-TrkB antibody. The pTyr levels were quantified by densitometry, normalized to total TrkB levels, and then compared to those of WT controls. n = 3 per group. (B) WT mouse brain lysates were subjected to IP with an anti-MDGA2 antibody and a control IgG, and immunoblotted (IB) for the components indicated. mBDNF, mature BDNF; ImBDNF, immature BDNF. […] Immunoprecipitated TrkB levels were quantified by densitometry, normalized to input levels, and compared to respective controls (set to one arbitrary units). n = 3 per group. […] Levels of phosphorylated proteins were quantified by densitometry, normalized to respective total protein levels and compared to controls (set to one arbitrary units). n = 6 per group. […] P-values were determined by two-tailed unpaired Student t-test in (A) and one-way ANOVA with Tukey’s multiple comparisons test in (H, I, J). *p < 0.05, **p < 0.01, ***p < 0.001, ns: not significant. […]

BDNF-TrkB interaction = assay: BDNF-TrkB Co-IP (anti-BDNF or anti-TrkB) in primary neurons / brain of Het, KO, WT and in WT neurons transfected with MDGA2 or ΔMAM; assay type: cell-based, mouse; details: IP anti-BDNF, Fig 3I
Procedure: as §1

B1: MDGA2-ΔMAM: truncated form of MDGA2 lacking its MAM domain (protein)
chain: PPTVRIVHSGLACNIEEERYSERVYTIREGETLELTCLVTGHPRPQIRWTKTAGSASDRFQDSSVFNETLRITNIQRHQGGRYYCKAENGLGSPAIKSIRVDVYYLDDPVVTVHQSIGEAKEQFYYERTVFLRCVANSNPPVRYSWRRGQEVLLQGSDKGVEIYEPFFTQGETKILKLKNLRPQDYANYSCIASVRNVCNIPDKMVSFRLSNKTASPSIKLLVDDPIVVNPGEAITLVCVTTGGEPAPSLTWVRSFGTLPEKTVLNGGTLTIPAITSDDAGTYSCIANNNVGNPAKKSTNIIVRALKKGRFWITPDPYHKDDNIQIGREVKISCQVEAVPSEELTFSWFKNGRPLRSSERMVITQTDPDVSPGTTNLDIIDLKFTDFGTYTCVASLKGGGISDISIDVNISSSTVPPNLTVPQEKSPLVTREGDTIELQCQVTGKPKPIILWSRADKEVAMPDGSMQMESYDGTLRIVNVSREMSGMYRCQTSQYNGFNVKPREALVQLIVQYPPAVEPAFLEIRQGQDRSVTMSCRVLRAYPIRVLTYEWRLGNKLLRTGQFDSQEYTEYAVKSLSNENYGVYNCSIINEAGAGRCSFLVTGKAYAPEFYYDTYNPVWQNRHRVYSYSLQWTQMNPDAVDRIVAYRLGIRQAGQQRWWEQEIKINGNIQKGELITYNLTELIKPEAYEVRLTPLTKFGEGDSTIRVIKYSAPVNPHLREQDLATKNSVD
modifications: left off: GFP, end not stated, kept
notes: truncated form of MDGA2 lacking its MAM domain
- interaction with TrkB (BiFC) (TrkB (TrkB-VN)): not MDGA2-ΔMAM
- interaction between BDNF and TrkB upon overexpression (BDNF-TrkB interaction): not MDGA2-ΔMAM
